Patent US20220275092A1 (F STAR THERAPEUTICS, published 2022)

Assays:
[1] = target: T1, mouse PD-L1 (mouse, UniProt Q9EP73 19-239, limits assumed); assay: Biacore (SPR)
T1 construct: also called mPD-L1

[2] = target: T2, mouse LAG-3 (mouse, UniProt Q61790 24-442, limits assumed); assay: Biacore (SPR)
T2 construct: also called mLAG-3
T2 sequence (looked up): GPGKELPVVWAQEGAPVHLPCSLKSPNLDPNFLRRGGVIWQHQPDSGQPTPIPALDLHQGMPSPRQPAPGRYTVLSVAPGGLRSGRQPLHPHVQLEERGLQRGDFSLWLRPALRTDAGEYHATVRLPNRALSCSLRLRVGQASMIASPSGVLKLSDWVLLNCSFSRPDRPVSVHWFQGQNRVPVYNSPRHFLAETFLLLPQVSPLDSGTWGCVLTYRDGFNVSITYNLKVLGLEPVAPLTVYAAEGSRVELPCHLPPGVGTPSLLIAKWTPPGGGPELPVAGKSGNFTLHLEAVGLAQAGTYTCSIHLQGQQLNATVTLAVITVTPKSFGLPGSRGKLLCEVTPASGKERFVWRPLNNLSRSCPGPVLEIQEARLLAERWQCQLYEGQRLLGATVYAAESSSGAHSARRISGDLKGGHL

T1 sequence (Q9EP73 19-239 limits assumed): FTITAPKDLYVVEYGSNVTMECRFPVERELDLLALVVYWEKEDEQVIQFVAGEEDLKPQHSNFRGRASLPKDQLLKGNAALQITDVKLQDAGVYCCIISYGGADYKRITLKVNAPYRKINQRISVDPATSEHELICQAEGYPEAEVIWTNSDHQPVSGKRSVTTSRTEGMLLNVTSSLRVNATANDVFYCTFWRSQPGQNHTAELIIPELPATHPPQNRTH

B1: anti-mouse LAG-3/PD-L1 mAb^2 FS18-7-108-29/S1 (with LALA mutation) (bispecific antibody, V domains shown)
VH: not shown
VL: DIQMTQSPSSLSASVGDRVTITCRASQDVSTAVAWYQQKPGKAPKLLIYSASFLYSGVPSRFSGSGSGTDFTLTISSLQPEDFATYYCQQYLFTPPTFGQGTKVEIKR
notes: also called mouse surrogate mAb^2; mLAG-3/PD-L1
Biacore binding affinity, fold higher than the binding of FS118 to hPD-L1 [1]: ~10 fold
Biacore binding affinity, fold lower than the binding of FS118 to hLAG-3 [2]: ~20 fold
